Source: US20260216328A1, “DISRUPTABLE LINKER COMPOSITIONS, SWITCHABLE BISPECIFIC T CELL NANOENGAGER (SWITCH-BITE) COMPOSITIONS COMPRISING THE SAME, AND METHODS OF USE THEREOF” (The Trustees of the University of Pennsylvania, priority 2023, published 2026)

Tests used:
[1] = system: Raji-Luc-GFP tumour cells; assay: Blinatumomab vaccine effect and CRS after discontinuation; type: in vivo, mouse
Procedure: Raji tumour cells and human T cells were co-cultured in serum-free medium and were treated with Blinatumomab for 24 h. After that, the cell culture medium was collected and the proteins in the medium were analyzed using proteomics. FIG. 44A: Large amount of damage associated molecule patterns (DAMPs); and FIG. 44B: tumour associated antigens were detected in the cell culture medium. FIG. 44C: Raji tumour bearing humanized NSG mice were treated with three doses of Blinatumomab. […] Then, Raji-Luc-GFP cell viability was determined. […] The data in FIG. 44C are presented as mean±s.d. (n=5) f. P value in FIG. 44C was determined using one-way ANOVA.
FIGS. 45A-45C: CRS symptoms cannot be stopped by simply stop the administration of Blinatumomab. FIG. 45A: humanized NSG mice were i.v. injected with Raji-Luc-GFP cells on day −14. Then Blinatumomab were administrated at days 1, 3, or 5. FIG. 45B: IL-6 level in mouse blood were monitored. FIG. 45C: survival curve.
It was also investigated if Blinatumomab could also induce a vaccine effect. […] It was also questioned whether CRS could be halted by simply discontinuing the administration of Blinatumomab, owing to its inherent short half-life. […] The pronounced targeting of T cells and CD19-expressing cells, coupled with heightened activation of many immune cells, served to amplify the cytokine cascade, rendering it impervious to interruption by the mere discontinuation of Blinatumomab usage. These findings underscore the critical exigency for the development of an alternative to Blinatumomab, one that can be switched off as needed, in this rapidly evolving research field.

[2] = Half-life and biodistribution of Blinatumomab and CD3/CD19 SiTE; type: in vivo, mouse
Procedure: FIGS. 17A-17F: half-life and in vivo biodistribution of Blinatumomab. FIGS. 17A-17B: Blinatumomab was labeled with Cy7 and was i.v. injected to healthy untreated mice. 10 μL of blood at 0, 1, 2, 4, 6, 12, 24, 36 and 48 h was collected and imaged using IVIS. The fluorescence signal at different time points were quantified (FIG. 17B). FIG. 17C: the biodistribution of Blinatumomab in healthy mice was also investigated 24 h after Blinatumomab-Cy7 injection. FIG. 17D: In order to mimic a clinical patient treatment, a mouse model was constructed with CD19 expression in the liver and a subcutaneous B-cell lymphoma model. Blinatumomab-Cy7 was i.v. injected at 0 h. The mice were euthanized at 24 h and the distribution of Blinatumomab-Cy7 in major organs and tumour was evaluated. The Blinatumomab-Cy7 mainly accumulates in the liver, spleen and tumour. The distribution of SiTE that targets human CD3 and human CD19 antigen was evaluated in both healthy untreated mice (FIG. 17E) and in a mouse model with CD19 expression in the liver and has a subcutaneous B-cell lymphoma tumour (FIG. 17F), similar results were obtained.
Encouraged by the results from the in vitro experiments, the controllable activity of SiTE was evaluated in vivo. […] It was also analyzed if the biodistribution of SiTE both in healthy NSG mice and in Raji tumour-bearing humanized NSG mice that express CD19 antigen in the liver. […]

[3] = mouse, in vivo; cited from earlier work
[4] = system: Raji-Luc-GFP tumour cells; assay: Cytokine release syndrome in humanized NSG-SGM3 mice with Raji-Luc-GFP tumour; type: in vivo, mouse
Procedure: An in vivo imaging system (IVIS) was used to monitor tumour burden in vivo. […] FIGS. 41C-41E: Mouse body weight, temperature and survival curves, respectively. n=10 mice. […] The data in FIGS. 41C-41D and FIGS. 41F-41J were plotted as mean±s.d. (n=10) from three independent experiments. […] P value in FIG. 41E was determined using Log-rank (Mantel-Cox) test.
SiTE and Blinatumomab were also compared with regard to treating symptoms of CRS and neurotoxicity. The humanized mouse model was constructed as before, but this time the piggybac transposon system was not used to express CD19 in the mouse livers. This allowed better analysis of the effects of the SiTE on CRS and neurotoxicity (FIG. 41A). Raji-Luc-GFP cells were i.v. injected at day −14. Blinatumomab, SiTE or PBS were i.v. injected to the mice at day one. Mouse tumour burden, body weight, temperature, and plasma cytokine levels were monitored (FIGS. 41B-41J).

Raji-Luc-GFP cells = assay: Antitumour efficacy in normal NSG mice with Raji-Luc-GFP tumour; type: in vivo, mouse; details: days 1, 3, 5
Text: FIGS. 43A-43C: comparison of the antitumour efficacy of SITE and Blinatumomab. In order to solely compare the antitumour capacity of Blinatumomab and the SiTE, CD19 antigen was not expressed in mouse liver so BiTNE or SiTE treatment will not induce on-target, off-tumour toxicity. Additionally, normal NSG mice (without humanization) were used to construct the tumour model so the mice will not develop CRS. FIG. 43A: Raji-Luc-GFP cells were i.v. injected to mice at day −14. Tumour bearing mice were treated with Blinatumomab or SiTE at days 1, 3, or 5. FIG. 43B: mice were imaged using IVIS at days 0, 5, 9, and 13 to monitor the tumour burden level. c, Quantification of the luminescence levels in FIG. 43B. The data in FIG. 43C were plotted as mean s.d. (n=5) f. P value in FIG. 43C was determined using one-way ANOVA.
In order to specifically assess the antitumour efficacy of Blinatumomab and the SiTE, expression of the CD19 antigen in the mouse liver was refrained from. By employing this approach, it was ensured that treatment with either Blinatumomab or SiTE would not elicit on-target, off-tumour toxicity. To further avoid the effect of CRS on the evaluation of the therapeutic outcome of Blinatumomab and SiTE, normal NSG mice were employed, devoid of humanization.

[5] = system: Raji-Luc-GFP tumour cells; assay: Humanized immune system mice with liver CD19 and Raji-Luc-GFP tumour; details: SiTE targets human CD3/CD19
[6] = system: Raji-Luc-GFP tumour cells; details: around day 33, after SiTE
Procedure: FIG. 42A: NSG-SGM3 mice were treated with Busulfan at day −50 to remove mouse bone marrow. At day −49, 10^5 human CD34^+ fetal liver cells were i.v. injected to let the mouse develop a human immune system. 10^6 Raji-Luc-GFP tumour cells were i.v. injected at day −14. At days 1, 3, and 5, PBS or SiTE was i.v. injected (in the PBS group, only PBS was injected to tumour-bearing mice). […] FIGS. 42B-42E: mouse body weight, temperature, IL-6 levels, and mouse survival curves, respectively. n=10 mice. The red stars in FIG. 42B indicate that mice were euthanized. FIG. 42F: measurements of IL-1 in mouse blood at different time points. n=10 mice. […] Brain H&E staining (FIG. 42I) and human CD68 immunohistochemistry (FIG. 42J) images of mice at day 35. The data in FIGS. 42B-42F were plotted as mean z s.d. (n=10) from three independent experiments.
It was also evaluated if the SiTE can help control neurotoxicity. In the clinic, neurotoxicity is usually delayed and occurs several […] after CRS onset. Tumour-bearing mice were treated with SiTE at days 1, 3 and 5 (FIG. 42A). […] Rather than use a preventative strategy for treating CRS (FIGS. 40A-40M), here Tocilizumab was used to treat CRS when symptoms presented, so that it can be compared directly with the SiTE strategy. […] Studies have shown that IL-1 is the major cause of neurotoxicity.

| Substance | release of DAMPs and tumour antigens from tumour cells ([1]; high dose, Raji cells and human T cells, 24 h) | tumour cell killing by T cells from treated mice ([1]; high dose, vs T cells from PBS-treated mice) | serum IL-6 ([1]; humanized NSG mice, persisted after cessation) | biodistribution ([2]; Raji tumour-bearing humanized mice expressing human CD19 in the liver) | biodistribution ([2]; healthy mice with a humanized immune system, i.v.) | half-life [3] | fever and body weight ([4]; 5 mg/kg, days 1, 3, 5, SiTE targets human CD3/CD19) | plasma IL-6, IFN-γ, TNF-α, CXCL10 and CCL3 concentrations ([4]; after treatment) | tumour growth (Raji-Luc-GFP cells) | tumour cell killing (IVIS) ([5]; 5 mg/kg i.v. x3, Tocilizumab pre-treatment) | on-target, off-tumour toxicity and CRS ([5]; 5 mg/kg i.v. x3) | signs of lethal neurological syndrome [6] |
| --- | --- | --- | --- | --- | --- | --- | --- | --- | --- | --- | --- | --- |
| Blinatumomab: first BiTE to receive FDA approval; links CD3-positive T cells to CD19-expressing B cell cancers | substantial release of DAMPs and tumour antigens | substantial tumour cell killing | notable elevation of IL-6 levels | high accumulation of Blinatumomab in the tumours, livers, and spleens | accumulated greatly in the spleens | 2.11 h | induced high fever and body weight loss | greatly increased | substantial suppression of tumour growth | induced effective tumour cell killing | not only induced on-target, off-tumour toxicity in the liver, but led to strong CRS |  |
| Tocilizumab: commercialized drug for CRS treatment; antibody for the IL-6 receptor |  |  |  |  |  |  |  |  |  |  |  | developed sudden paralysis |
